Measured values reported in patent US20130096058A1.

Biological target: Murine CD40L on the Th2 cell line D10.G4.1 (mouse) (UniProt P27548)
Experiment: cell-based or functional assay

Sequence of Murine CD40L on the Th2 cell line D10.G4.1 (mouse) (P27548 whole entry): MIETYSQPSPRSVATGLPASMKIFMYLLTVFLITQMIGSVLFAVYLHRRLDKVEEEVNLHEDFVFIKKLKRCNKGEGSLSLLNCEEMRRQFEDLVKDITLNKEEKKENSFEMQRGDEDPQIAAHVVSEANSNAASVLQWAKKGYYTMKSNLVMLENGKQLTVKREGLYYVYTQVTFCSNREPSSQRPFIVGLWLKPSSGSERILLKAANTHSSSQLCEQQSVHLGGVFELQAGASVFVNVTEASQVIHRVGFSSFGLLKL

Substance MR1 antibody has an IC50 of inhibition of MuCD40L-induced CD86 expression on B cells of 100 µM.
